Holding throughout (assay): ITC; PRPF40A construct (WW12, N-ext-WW12 or its mutant) in the cell, GB1-SF1 or GB1-SF3A1 construct in the syringe (as shown in Supplementary Figures 16 and 21); 25 °C, 20 mM sodium phosphate pH 6.5, 100 mM NaCl; one-site binding model; at least duplicates; affinities apparent
Holding throughout (conditions): both partners purified
A general note: Isothermal titration calorimetry measures the heat released or taken up as one component is titrated into another.

Test [1] has as its target T1, GB1-SF1 Pro BCD (residues 468-639) (UniProt Q15637 468-639).
T1 construct: splicing factor 1 (SF1), residues 468-639; His6-GB1-TEV site cassette of the pET24 vector, not cleaved; source: E. coli BL21(DE3), purified (Ni-NTA, SEC); not shown: GB1, N-terminal, kept
T1 sequence (looked up): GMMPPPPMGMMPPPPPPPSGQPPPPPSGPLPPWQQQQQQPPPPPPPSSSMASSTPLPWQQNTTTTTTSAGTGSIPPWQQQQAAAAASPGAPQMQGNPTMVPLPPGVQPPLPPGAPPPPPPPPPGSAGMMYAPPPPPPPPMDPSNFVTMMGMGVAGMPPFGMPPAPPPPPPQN

Test [2] concerns the target T2, GB1-SF1 Pro CD (residues 539-639) (UniProt Q15637 539-639).
T2 construct: splicing factor 1 (SF1), residues 539-639; His6-GB1-TEV site cassette of the pET24 vector, not cleaved; source: E. coli BL21(DE3), purified (Ni-NTA, SEC); not shown: GB1, N-terminal, kept
T2 sequence (looked up): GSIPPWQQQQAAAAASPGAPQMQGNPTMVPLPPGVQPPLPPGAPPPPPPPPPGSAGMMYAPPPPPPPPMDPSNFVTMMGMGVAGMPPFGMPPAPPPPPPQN

Test [3] has as its target T3, GB1-SF1 Pro BC (residues 468-594) (UniProt Q15637 468-594).
T3 construct: splicing factor 1 (SF1), residues 468-594; His6-GB1-TEV site cassette of the pET24 vector, not cleaved; also called SF1 BC; source: E. coli BL21(DE3), purified (Ni-NTA, SEC); not shown: GB1, N-terminal, kept
T3 sequence (looked up): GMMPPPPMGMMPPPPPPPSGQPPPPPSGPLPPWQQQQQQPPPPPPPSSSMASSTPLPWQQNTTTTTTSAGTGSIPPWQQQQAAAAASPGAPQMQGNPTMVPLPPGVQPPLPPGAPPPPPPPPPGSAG

Test [4] concerns the target T4, GB1-SF3A1 C-ter Pro (residues 552-683) (UniProt Q15459 552-683).
T4 construct: His6-GB1-TEV site cassette of the pET24 vector, not cleaved; source: E. coli BL21(DE3), purified (Ni-NTA, SEC); not shown: GB1, N-terminal, kept
T4 sequence (looked up): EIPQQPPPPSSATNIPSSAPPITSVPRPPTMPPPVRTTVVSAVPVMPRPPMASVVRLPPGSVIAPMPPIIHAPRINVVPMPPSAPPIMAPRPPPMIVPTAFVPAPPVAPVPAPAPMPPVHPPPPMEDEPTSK

For test [5], the target named is T5, GB1-SF1 Pro ABCD (residues 410-639) (UniProt Q15637 410-639).
T5 construct: splicing factor 1 (SF1), residues 410-639, the complete proline-rich C-terminal region; His6-GB1-TEV site cassette of the pET24 vector, not cleaved; source: E. coli BL21(DE3), purified (Ni-NTA, SEC); not shown: GB1, N-terminal, kept
T5 sequence (looked up): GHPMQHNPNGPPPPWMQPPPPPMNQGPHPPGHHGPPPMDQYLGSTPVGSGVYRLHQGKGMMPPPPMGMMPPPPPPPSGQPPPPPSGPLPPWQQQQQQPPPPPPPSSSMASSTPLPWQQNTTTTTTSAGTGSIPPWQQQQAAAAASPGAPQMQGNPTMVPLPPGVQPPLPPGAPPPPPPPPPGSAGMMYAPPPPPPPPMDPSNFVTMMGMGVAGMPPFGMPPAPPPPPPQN

B1: PRPF40A WW12 (tandem WW domains, residues 141-236) (domain or fragment, human, UniProt O75400 141-236, looked up)
chain: GAKSMWTEHKSPDGRTYYYNTETKQSTWEKPDDLKTPAEQLLSKCPWKEYKSDSGKPYYYNSQTKESRWAKPKELEDLEGYQNTIVAGSLITKSNL
notes: A few vector residues probably remain at the N-terminus after TEV cleavage (pETM11, NcoI site); 15N-labelled in the NMR experiments; also called PRPF40A WW tandem; WW12 wt; source: E. coli BL21(DE3), purified (Ni-NTA, TEV digestion, reverse Ni-NTA, SEC); not shown: His6, N-terminal, cleaved
Turning to B1, the Kd in test [1] was 3.65 ± 0.71 µM; in test [2] it was 3.8 ± 0.69 µM; in test [3], 6.83 ± 2.33 µM; in test [4] it was 19.3 ± 4.5 µM; in test [5], 4.91 ± 0.51 µM.

For the origin of these results see article PMC11079029, “Intramolecular autoinhibition regulates the selectivity of PRPF40A tandem WW domains for proline-rich motifs” (Nature Communications, 2024).
